This note sets out measurements from patent US20200199213A1 (Eli Lilly, published 2020).

Residue numbers refer to the chain shown, from its start. Numbers in names are those of the source.

T1: human ANGPTL3/8 complex (human, UniProt Q9Y5C1 17-460; Q6UXH0 22-198, limits assumed)
T1 construct: also called hANGPTL3/8 complex; ANGTPL3/8 complex
T1 sequence 1: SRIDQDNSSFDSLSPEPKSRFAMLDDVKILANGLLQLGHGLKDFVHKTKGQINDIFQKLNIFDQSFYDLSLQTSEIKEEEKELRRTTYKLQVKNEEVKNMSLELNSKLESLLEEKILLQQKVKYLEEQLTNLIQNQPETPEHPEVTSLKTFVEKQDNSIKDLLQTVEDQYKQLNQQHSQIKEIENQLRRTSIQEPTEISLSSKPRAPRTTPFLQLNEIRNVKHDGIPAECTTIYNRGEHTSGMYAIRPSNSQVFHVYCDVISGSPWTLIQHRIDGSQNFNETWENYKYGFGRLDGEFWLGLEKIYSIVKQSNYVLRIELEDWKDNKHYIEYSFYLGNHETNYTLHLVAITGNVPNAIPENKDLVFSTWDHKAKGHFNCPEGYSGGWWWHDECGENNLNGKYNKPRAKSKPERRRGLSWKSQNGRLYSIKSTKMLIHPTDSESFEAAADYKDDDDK
T1 sequence 2: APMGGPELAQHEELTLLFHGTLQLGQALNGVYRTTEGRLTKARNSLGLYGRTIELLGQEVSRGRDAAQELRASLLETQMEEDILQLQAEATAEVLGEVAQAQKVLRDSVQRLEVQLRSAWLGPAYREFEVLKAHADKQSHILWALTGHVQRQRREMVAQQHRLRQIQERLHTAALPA

T2: human ANGPTL8 (human, UniProt Q6UXH0 22-198)
T2 construct: Biotinylated in the ELISA assays; also called hANGPTL8; free ANGPTL8
T2 sequence: T1 sequence 2

T3: human ANGPTL3 (human, UniProt Q9Y5C1 17-460)
T3 construct: Biotinylated in the ELISA assays; also called hANGPTL3; free ANGPTL3
T3 sequence: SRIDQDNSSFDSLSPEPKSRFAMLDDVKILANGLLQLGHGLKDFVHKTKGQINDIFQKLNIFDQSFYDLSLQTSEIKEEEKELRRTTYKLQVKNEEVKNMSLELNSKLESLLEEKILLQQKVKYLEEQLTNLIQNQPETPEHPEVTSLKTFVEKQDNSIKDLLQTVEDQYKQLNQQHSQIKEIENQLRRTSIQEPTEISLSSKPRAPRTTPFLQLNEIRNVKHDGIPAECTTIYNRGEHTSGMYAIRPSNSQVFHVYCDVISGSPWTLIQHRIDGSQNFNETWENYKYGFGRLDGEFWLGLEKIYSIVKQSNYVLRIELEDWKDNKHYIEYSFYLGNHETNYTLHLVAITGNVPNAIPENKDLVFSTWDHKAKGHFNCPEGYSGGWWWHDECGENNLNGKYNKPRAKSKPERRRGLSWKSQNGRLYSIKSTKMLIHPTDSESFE

B1: anti-ANGPTL3/8 complex Ab having a LC of SEQ ID NO:5 and a HC of SEQ ID NO:6 (antibody, human IgG4 S228P, kappa, F234A L235A, V domains shown)
VH: QVTLKESGPTLVKPTQTLTLTCTFSGFSLSISGVGVGWIRQPPGKALEWLALIYRNDDKRYSPSLKSRLTITKDTSKNQVVLTLTNMDPVDTATYYCARTYSSGWYGNWFDPWGQGTLVTVSS
VL: DIVMTQTPLSLPVTPGEPASISCRSSQSLLDSDDGNTYLDWYLQKPGQSPQLLIYMLSYRASGVPDRFSGSGSGTDFTLKISRVEAEDVGIYYCMQRIEFPLTFGGGTKVEIKR
notes: In the ELISA assays tested as IgG from CHO supernatants; also called the Ab
B2: Ab with LC variant having a D33A mutation (SEQ ID NO:22) and a HC of SEQ ID NO:6 (antibody, human IgG4 S228P, kappa, F234A L235A, V domains shown)
VH: B1 VH
VL: B1 VL with D33A
notes: also called D33A Variant Ab; D33A Ab
B3: Ab with LC variant having a E99Q mutation (SEQ ID NO:25) and a HC of SEQ ID NO:6 (antibody, human IgG4 S228P, kappa, F234A L235A, V domains shown)
VH: B1 VH
VL: B1 VL with E99Q
notes: also called E99Q Variant Ab; E99Q Ab
B4: Ab with LC variant having a D31S mutation (SEQ ID NO:21) and a HC of SEQ ID NO:6 (antibody, human IgG4 S228P, kappa, F234A L235A, V domains shown)
VH: B1 VH
VL: B1 VL with D31S
notes: also called D31S Variant Ab; D31S Ab

One assay concerns the target T1, human ANGPTL3/8 complex. As to the kind of experiment: ELISA; Ab captured by anti-human Fc; biotinylated antigen at 100 nM. As to the method: (§1) ELISA Assay: Ab binding selectivity to either the ANGPTL3/8 complex, free ANGPTL3 or free ANGPTL8 is verified using standard ELISA assays. […] Ab from CHO supernatants after expression in CHO cells is then captured to the assay plate and results is an Ab concentration of 2 μg/ml. Biotinylated antigen (ANGPTL3, ANGPTL8 or ANGPTL3/8 complex) is added at varying concentrations by serial dilution to allow for Ab/antigen binding. Ab/antigen complexes are detected after the addition of alkaline phosphatase-conjugated neutravidin, and alkaline phosphatase substrate, and subsequent measurement of the optical density at 560 nm.
For orientation: ELISA stands for enzyme-linked immunosorbent assay.
Take B1: the “OD at 560 nm” value is 2.71 OD 560 nm.
As to B2, the “OD at 560 nm” value worked out at 2.39 OD 560 nm.
On to B3, for which the “OD at 560 nm” value came out at 2.47 OD 560 nm.
As to B4, the “OD at 560 nm” value is 2.47 OD 560 nm.

The next assay deals with T2, human ANGPTL8. The description is as above. The procedure:
as §1
Regarding B1, the “OD at 560 nm” value worked out at 0.072 OD 560 nm.
As for B2, the “OD at 560 nm” value is 0.078 OD 560 nm.
On the same count and under the same terms, in the case of B3 it was 0.098 OD 560 nm; in that of B4, 0.098 OD 560 nm.

The next assay deals with T3, human ANGPTL3. The description is as above. As to the method:
as §1
Regarding B1, the “OD at 560 nm” value was 0.081 OD 560 nm.
On the same count and under the same terms, under B2 stands 0.082 OD 560 nm; under B3, 0.084 OD 560 nm.
Turning to B4, the “OD at 560 nm” value turned out to be 0.084 OD 560 nm.

For the next assay, the target named is T1, human ANGPTL3/8 complex. As to the kind of experiment: ELISA; Ab captured by anti-human Fc; biotinylated antigen at 1.23 nM. As to the method:
as §1
Consider B1, for which the “OD at 560 nm” value amounted to 0.51 OD 560 nm.
Regarding B2, the “OD at 560 nm” value turned out to be 0.491 OD 560 nm.
On to B3, for which the “OD at 560 nm” value was found to be 0.575 OD 560 nm.
For B4, the “OD at 560 nm” value turned out to be 0.575 OD 560 nm.

The next assay concerns the target T2, human ANGPTL8. Described as above. As to the method: as §1
On to B1, for which the “OD at 560 nm” value came out at 0.043 OD 560 nm.
Same read-out and setting: under B2 stands 0.049 OD 560 nm; under B3, 0.058 OD 560 nm; under B4, 0.058 OD 560 nm.

The target in a further assay is T3, human ANGPTL3. Described as above. As to the method:
as §1
As for B1, the “OD at 560 nm” value worked out at 0.043 OD 560 nm.
For the molecule B2, the “OD at 560 nm” value was 0.057 OD 560 nm.
As for B3, the “OD at 560 nm” value was 0.059 OD 560 nm.
On the same count and under the same terms, in the case of B4 it was 0.059 OD 560 nm.

A further assay concerns the target T1, human ANGPTL3/8 complex. The assay can be described thus: ELISA; Ab captured by anti-human Fc; biotinylated antigen at 3.70 nM. The procedure:
as §1
In the case of B1, the “OD at 560 nm” value is 1.04 OD 560 nm.
For the molecule B2, the “OD at 560 nm” value amounted to 1.04 OD 560 nm.
As to B3, the “OD at 560 nm” value came out at 1.13 OD 560 nm.
In the case of B4, the “OD at 560 nm” value stood at 1.13 OD 560 nm.

A further assay has as its target T2, human ANGPTL8. The description is as above. As to the method:
as §1
For the molecule B1, the “OD at 560 nm” value was 0.051 OD 560 nm.
Still for that read-out and setting: under B2 stands 0.048 OD 560 nm; under B3, 0.056 OD 560 nm; under B4, 0.056 OD 560 nm.

Another assay addresses T3, human ANGPTL3. Described as above. The procedure: as §1
Regarding B1, the “OD at 560 nm” value came out at 0.046 OD 560 nm.
Same read-out and setting: in the case of B2 it was 0.056 OD 560 nm.
On the same count and under the same terms, under B3 stands 0.06 OD 560 nm.
Same read-out and setting: in the case of B4 it was 0.06 OD 560 nm.

Another assay has as its target T1, human ANGPTL3/8 complex. As to the kind of experiment: ELISA; Ab captured by anti-human Fc; biotinylated antigen at 33.3 nM. As to the method:
as §1
As to B1, the “OD at 560 nm” value came out at 2.41 OD 560 nm.
Same read-out and setting: under B2 stands 2.18 OD 560 nm.
With B3, the “OD at 560 nm” value worked out at 2.23 OD 560 nm.
Turning to B4, the “OD at 560 nm” value was 2.23 OD 560 nm.

A further assay has as its target T1, human ANGPTL3/8 complex. As to the kind of experiment: ELISA; Ab captured by anti-human Fc; biotinylated antigen at 0.046 nM. The procedure: as §1
As to B1, the “OD at 560 nm” value came to 0.078 OD 560 nm.
Same read-out and setting: in the case of B2 it was 0.111 OD 560 nm; in that of B3, 0.149 OD 560 nm; in that of B4, 0.149 OD 560 nm.

The target in a further assay is T2, human ANGPTL8. The description is as above. As to the method: as §1
Turning to B1, the “OD at 560 nm” value was found to be 0.051 OD 560 nm.
Same read-out and setting: in the case of B2 it was 0.074 OD 560 nm.
Take B3: the “OD at 560 nm” value is 0.096 OD 560 nm.
For the molecule B4, the “OD at 560 nm” value came out at 0.096 OD 560 nm.

Another assay addresses T3, human ANGPTL3. The description is as above. As to the method:
as §1
For B1, the “OD at 560 nm” value came to 0.06 OD 560 nm.
As to B2, the “OD at 560 nm” value was 0.062 OD 560 nm.
As to B3, the “OD at 560 nm” value turned out to be 0.06 OD 560 nm.
Still for that read-out and setting: under B4 stands 0.06 OD 560 nm.

For the next assay, the target named is T1, human ANGPTL3/8 complex. As to the kind of experiment: ELISA; Ab captured by anti-human Fc; biotinylated antigen at 0.412 nM. As to the method:
as §1
In the case of B1, the “OD at 560 nm” value came out at 0.231 OD 560 nm.
Still for that read-out and setting: under B2 stands 0.196 OD 560 nm; under B3, 0.234 OD 560 nm.
Same read-out and setting: under B4 stands 0.234 OD 560 nm.

The target of the next assay is T2, human ANGPTL8. Described as above. As to the method: as §1
For the molecule B1, the “OD at 560 nm” value worked out at 0.046 OD 560 nm.
For B2, the “OD at 560 nm” value was determined as 0.047 OD 560 nm.
On the same count and under the same terms, under B3 stands 0.062 OD 560 nm; under B4, 0.062 OD 560 nm.

Another assay deals with T3, human ANGPTL3. The assay is described as above. The procedure:
as §1
Turning to B1, the “OD at 560 nm” value was 0.043 OD 560 nm.
For the molecule B2, the “OD at 560 nm” value was 0.056 OD 560 nm.
Still for that read-out and setting: in the case of B3 it was 0.058 OD 560 nm; in that of B4, 0.058 OD 560 nm.
